Laboratory results published in the nanobody polyreactivity screen of Harvey et al. (2022).

Experiment: yeast display, Sf9 membrane polyspecificity reagent, FACS + sequencing; frameworks hold sequencing errors
How it was run: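 Nanobodies from a synthetic yeast display library (Saccharomyces cerevisiae BJ5465), induced 36–48 hours with galactose, were stained 1 hour at 4 °C with 10% biotinylated, detergent-solubilized Sf9 membrane reagent, enriched on streptavidin microbeads, then FACS-sorted. Anti-HA (expression) and streptavidin (reagent binding) fluorescence set low and high (top ~1%) gates. Polyreactivity labels come from the gate of origin. Genes were colony-PCR amplified, MiSeq 2 × 250 sequenced and filtered by CDR length.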

Row | Sequence | polyreactivity (PSR sort gate)
1 | QVQLVESGGGLVQAGGSLRLSCAASGRTFVYNAMGWYRQAPGKERELVAAITSGGSTYYADSVKGRFTMSRDNAKNTVYLQMNSLKPEDTAVYYCDGYKRGYYWGQGTQVTVSS | high polyreactivity
2 | QVQLVESGGGLVQAGGSLRLSCAASGRIFVRNAMGWYRQAPGKERELVASISSSSGSTYYADSVKGRFTISRDNAKNTVYIQMNSLKPEDTAVYYCNAGYHFVHWPHVKHKKFDYWGQGTQVTVSS | low polyreactivity
3 | QVQLVESGGGLVQAGGSLRLSCAASGRTYFTNAMGWYRQAPGKERELVAAITGSGGSTSYADSVKVRFTISRDNAKNTVYLQMNSLKPEDTAVYYCAAEWQELEYVYWGQGTQVTVSS | low polyreactivity
4 | QVQIVESGGGLVQAGGSLRLSFAASGRIFYNYALGWYRQAPGKERELVAAISGSGGSTYYADSVKGRFTISRDNAKNTVYLQMNSLKPEVTAVYYCSTSGPQYYSRNFDYWGQGTQVTVSS | low polyreactivity
5 | QVQLVESGGGLVQAGGSLRLSCAASGIIFDDYAMGWYRQAPGKERELVAAISVSGGSTYNADSVKGRFTISRDNAKNTVYLQMNSLKPEDTAVYYCAARLIVGRFLRYDYWGQGTQVTVSS | high polyreactivity
6 | QVQLVESGGGLVQAGGSLRLSCAASGSIFYPYAMGWYRQAPGKERELVAAISRSGGSTRYADSVKGRFTISRDNAKNTVYLQMNSLKPEDTAVYYCAVRVFYGVGLIGYYYWGQGTQVTVSS | high polyreactivity
7 | QVHLVESAGGLVQAGGSLRLSCAASGITFSDNAMGWYRPAPGKETEVVAAISWGGGSTYYADSVKGRFTISRDNAKNTVYLQMNSLKPEDTAFYYCNAGGYLISDVDRVGYWGQGTQVTVSS | low polyreactivity
8 | QVQLVESGGGLVQAGGSLRLSCAASGIIFWRYAMGWYRQAPGKERELVASISWSGGSTSYADSVKGRFTISRDNAKNTVYLQMNSLKPEDTAVYYCAAVFYYRRRYYYWGQGTQVTVSS | high polyreactivity
9 | QVQLVESGGGLVQAGGSLRLSCAASGSIFGAYAMGWYRQAPGKERELVAAITSGGSTNYADSVKGRFTISRDNAKNTVYLQMNSLKPEDTAVYYCAARRRYAKFRYDYWGQGTQVTVSS | high polyreactivity
10 | QVQLVESGGGLVQAGGSLRLSCAASGSTFTFYAMGWYRQAPGKERELVATISSSGGSTYYADSVKGRFTISRDNAKNTVYLQMNSLKPEDTAVYYCTATTAPRDGKWQGGMDYWGQGTQVTVSS | low polyreactivity
11 | QVQLVESGGGLVQAGGSLRLSCAASGSTFYLYAMGWYRQAPGKEREFVAAISWSGGRTYYAYSVKGRFTISRDNAKNTVYLQMNSLKPEDTAVYYCAARRRYTWQYTRYDMGYWGQGTQVTVSS | low polyreactivity
12 | QVQLVESGGGLVKAGGSLRLSCAASGSNFTFYAMGWYRQAPGKVRELDATISLRGGRKYYADSVKGRFTISRDNAKNTVYLQMNSLKPEDTAVYYCNAPAYYGGYRFRGYNYWGQGTQVTVSS | high polyreactivity
13 | QVQLVESGGGLVQAGGSLRLSCAASGSIFYAYAMGWYRQAPRKERELVAAITRSGGSTYYADSVKGRFTISRDNAKNTVYLQMNSLKPEDTAVYYCAAVSRSRRMDFWGQGTQVTVSS | high polyreactivity
14 | QVQLVESGGGLVQAGGSLRLSCAASGSILVPNAMGWYRQAPRKERELVAGISANGGSTYYADSVKGRFTISRDNAKNTVYFQMNSLKPEDTAVYDCNARLYWDWYGDDYWGQGTQVTVSS | low polyreactivity
15 | QVQLVESGGGLVQAGGSLRLSCAASGSIFSYYGMGWYRQAPGKERELVAAITDGDGTNYADSVKGRFTISRDNAKNTVYLQMNSLKPEDTAVYYCARDDRDIRGESGREGFLYDYWGQGTQVTVSS | low polyreactivity
16 | QVQLVESGGGLVQAGGSLRLSCAATGGTFTFYAMGWYRQAPGKERELVATINWSGGSTYYADSVKGRFTISRDNAKITVYLQMNSLKPEDTAVYYCNAAWPYKSVEYWGQGTQVTVSS | low polyreactivity

Row | Sequence | polyreactivity (PSR sort gate)
17 | QVQLVESGGGLVQAGGSLRLSCAASGSTFNRYAMGWYIQAPGKERELVAAITRSGTSTYYADSVKGRFTISRDNAKNTVYLQMNSLKPEDTAVYYCAAVRYAVHFSYDYWGQGTQVTVSS | high polyreactivity
18 | QVQLVESGGGLVQAGGSLRLSCAASGLTFYPYAMGWSRQAPGKERELVAAINWSGTTTYYADSVKGRFTISRDNAKNTVYLQMNSLKPEDTAVYYCNADVYYEPTTGYYLWDYDYWGQGTQVTVSS | low polyreactivity
19 | QVQLVESGGGLVQAGGSLRLICAASGFIFSAYAMGWYRQAPGKERELVAAISYSGGTTYYADSVKGRFTISRDNAKNTVYLQMNSLKPEDTAVYYCAAGVGYWGQGTQVTVSS | high polyreactivity
20 | QVQLVESAGGLVQAGGSLRLSCAASGSIFPLYAMGWYRQAPGKERELVAAISYSGGRTYYADSVKGRFTISRDNAKNTVYLQMNSLKPEDTAVYYCNTRQRVIDDYWGQGTQVTVSS | high polyreactivity
21 | QVQLVESGGGLVQAGGSLLLSCAASGNTFYKYTMGWYRQAPGKERELVAVISSSSGSTYYADSVKGRFTISRDNAKNTVYLQMNSLKPEYTAVYYCKKRGWWDLRHYYWGQGTQVTVSS | low polyreactivity
22 | QVQLVESGGGLVQAGGSLRLSCAASGLTLDPYAMGWSRQAPGKERELVAAISWSGGGTTYADSVKGRFTISRDNAMNTVYLQMNSLKPEDTAVYYCAAAAPHLSAKMDYWGQGTQVTVSS | low polyreactivity
23 | QVQLVESGGGLVQAGGSLRLSCAASGRIFAYYAMGWYRQPPGKERELVAAISRSGVSTYYADSVKGRFTISRDNAKNTVYLQMNSLKPEDTAVYYCAKTLSPEGVPYDYWGQGTQVTVSS | low polyreactivity
24 | QVQLVESGGGLVQAGGSLRLSCAASGSTFYAYGMGWYRQAPGKERELVATITWSGGSTYYADSVKGRFTISRDNAKNTVYLQMNSLKPEDTAVYYCAARSPFPTIADGDYWGQGTQVTVSS | low polyreactivity
25 | QVQLVESGGGLVQAGGSLRLSCAASGFTFPSYAMGWYRQAPGKERELVAAISYRGGRTYYADSVKGRFTISRDNAKNTVYLQMNSLKPEDTAVYYCAAKGWYFGYGRYGYWGQGTQVTVSS | high polyreactivity
26 | QVQLVESGRGLVQAGGSLRLSCAASGIFTRYAMGWYRQAPGKERELVAAISRGGGSTYYADSVKGSFTISRDNAKNTVYLQMNSLKPEDTAVYYCAADNSPRPYDYWGQGTQVTVSS | high polyreactivity
27 | QVQLVESGGGLVQAGGSLRLSCAASGSIFYRNVMGWYRQAPGKERELVAAISWSGGSTYYADSVKGRFTISRDKSKNTVYLQMNSLKPEDTAVYYCAADIPKTCYPYAFEYWGQGTQVTVSS | low polyreactivity
28 | QVQLVESGGGLVQAGGSLRLSCAASGSTFGGNDMGWYRQAPGKERELVAAISSGTSTNYADSVKGRFTISRDNAKNTVYLQMNSLKPEDTAVYYCAAKWHVRGRGARYRYDYDYWGQGTQVTVSS | low polyreactivity
29 | PVQLVESGGGLGQAGGSLRLSCAASGLTFGRYAMGWYRQAPGKERELVAAITRSGGRTYYADSVKGRFTISRDNAKNTVYLQMNSLKPEDTAVYYCNTRSHLGAPGDPDDYWGQGTQVTVTS | high polyreactivity
30 | QVQLVESGGGLVQAGGSLRLSCAASGSTFIVNAMRWYRQAPGKERELVAAIDWSGGSTYYADSVKGRFTISRDNAKNTVYLQMNSLKPEDTAVYYCAAQYEIPAGNSTYDYWGQGTQVTVSS | low polyreactivity
31 | QDQLVESGGGLVQAGGSLRLSCAASGSILLLNMGWYRQAPGKEMELVASIRWSGGITYYADSVKGRFTISRDNAKNTVYLQMNSLKPEDTAVYYCAARTYRYFGRYDYWGQGTQVTVSS | high polyreactivity
32 | QVQLQESGGGLMQAGGSLRLSCAASGNIFLGHTKGWYRQAPGNEREFVAGIARGGNPYNADSVKGRFTISRNNAKNTVYLQKNSLKAEDTAVHYCGVQRSHASDYNYWGQGTQVTVSS | low polyreactivity
